Results published in patent publication US20060172374.
Values joined by “and” are separate entries in the source; they are usually repeats but may differ in a detail not shown here. Identical values can stand only once.

Assays:
bovine S100B (Sigma) = bovine S100B (Sigma) (UniProt P02638)
Chain of bovine S100B (Sigma) (P02638 2-92): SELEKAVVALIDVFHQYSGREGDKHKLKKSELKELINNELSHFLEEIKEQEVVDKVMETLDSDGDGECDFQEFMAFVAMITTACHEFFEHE

Chain of GST-NDR2 (chain, as listed by the source): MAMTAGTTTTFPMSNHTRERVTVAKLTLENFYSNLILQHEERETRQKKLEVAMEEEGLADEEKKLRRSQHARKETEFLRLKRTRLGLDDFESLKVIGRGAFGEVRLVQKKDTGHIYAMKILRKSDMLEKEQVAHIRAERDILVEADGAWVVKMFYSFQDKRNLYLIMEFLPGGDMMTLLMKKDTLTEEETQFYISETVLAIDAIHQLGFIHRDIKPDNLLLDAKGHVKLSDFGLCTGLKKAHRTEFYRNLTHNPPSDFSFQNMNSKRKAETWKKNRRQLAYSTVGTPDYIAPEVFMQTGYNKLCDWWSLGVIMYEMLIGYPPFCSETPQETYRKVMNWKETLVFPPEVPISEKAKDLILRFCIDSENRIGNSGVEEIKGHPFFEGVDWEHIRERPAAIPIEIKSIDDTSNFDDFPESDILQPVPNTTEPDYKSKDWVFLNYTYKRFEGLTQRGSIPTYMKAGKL
Chain of myc-tagged hMOB1 (chain, as listed by the source): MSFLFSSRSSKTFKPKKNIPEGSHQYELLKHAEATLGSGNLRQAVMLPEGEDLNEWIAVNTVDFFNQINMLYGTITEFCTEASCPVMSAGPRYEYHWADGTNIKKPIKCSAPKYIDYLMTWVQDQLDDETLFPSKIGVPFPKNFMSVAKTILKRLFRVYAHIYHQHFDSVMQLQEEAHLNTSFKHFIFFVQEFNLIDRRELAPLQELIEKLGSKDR

Substance	autophosphorylation, incorporated 32P (Cerenkov counting), +S100B (bovine S100B (Sigma))	specific activity, peptide kinase assay, after autophosphorylation +S100B (bovine S100B (Sigma))	other results
GST-NDR1 S281A	0.028	0.952	–
GST-NDR1 T74A	0.207	7.82	S100B-mediated increase of phosphorylation of Ser281 and Thr444 (immunoblot with phosphospecific antibodies) (bovine S100B (Sigma)): the T74A point mutation abolished the S100B-mediated increase of phosphorylation for both Ser281 and Thr444 residues without affecting the intrinsic NDR1 autophosphorylation
GST-NDR1 T444A	0.241	3.97	–
GST-NDR1 kinase dead (K118A)	0.0064	0.222	–
GST-NDR1 wild type	0.351	21.3	increase in autophosphorylation (bovine S100B (Sigma)): an approximate 2-fold increase in autophosphorylation (on both Ser281 and Thr444); increase in kinase activity (bovine S100B (Sigma)): about a 5-fold increase in kinase activity; phosphorylation on Ser281 and Thr444 (immunoblot with phosphospecific antibodies) (bovine S100B (Sigma)): Ca2+/S100B was found to enhance phosphorylation on both Ser281 and Thr444
GST-NDR2	–	–	rate of NDR2 autophosphorylation (bovine S100B (Sigma)): increases the rate of NDR2 autophosphorylation by ˜2-fold after 4 hours of incubation; specific NDR activity (bovine S100B (Sigma)): stimulates the specific NDR activity in a concentration dependent manner up to ˜4-fold
HA-tagged NDR1 wild type	–	–	NDR autophosphorylation activity (32P, SDS PAGE, phosphoimager) (GST-hMOB1): Addition of GST-hMOB1 to HA-NDR kinase reactions stimulated NDR autophosphorylation activity; OA stimulated NDR kinase activity (peptide kinase assay of 12CA5 immunoprecipitates) (myc-tagged hMOB1): 2 fold and 3 fold
